What was measured:
[1] = Dicamba decarboxylation activity of computationally designed protein variants and parents (Tables 4, 5); settings: for dicamba decarboxylase activity (statement in the description): native proteins and designed variants, assay not specified
[2] = 14C assay: 14CO2 capture from [14C]-carboxyl-labeled dicamba with purified protein; type: biochemical
[3] = 14C assay: 14CO2 capture from [14C]-carboxyl-labeled dicamba with IPTG-induced recombinant E. coli cells; settings: for Enzymatic Detection level: dicamba decarboxylation activity
[4] = GC/MS detection of 2,5-dichloro anisole (2,5-DCA), toluene trapping or head-space; type: biochemical; settings: purified protein, dicamba, toluene capturing
Description: Alternatively, dicamba decarboxylase activity can be monitored by measuring decarboxylation products other than CO2 using product detection methods. The decarboxylation product of dicamba, 2,5-dichloro anisole or 2,5-DCA (FIG. 1C), is a volatile compound with a flash point of 21° C. To capture this volatile compound for detection, 140 ul of toluene solution is added on top of 1 ml reaction mixture to form a trapping layer in a 1.5 ml eppendorf tube. […] The reaction is kept still at room temperature overnight before being vortex mixed and centrifuged at 14,000 rpm for 15 minutes. The top toluene phase is carefully removed using a micropipette and transferred into a 12×32 mm polypropylene vial (Vial 11 mm) from MicroLiter Analytical Supplies, Inc. (catalog number 11-5300-100). The vial is sealed with Crimp seal (11 mm with FEP/Nat Rubber) from MicroLiter Analytical Supplies, Inc. (catalog number 11-0020A) using a E-Z Crimper™ 11 mm from Wheaton Inc. 1 ul of the toluene mixture is taken from the sealed vials and injected in splitless mode into a GC/MS system for sample analysis (Agilent GC/MS system with a 6890A GC, a 5973N MSD and a CTC CombiPAL auto-sampler or with a 7890A GC, a 5975C MSD and an Agilent GC Sampler 80 auto-sampler). The GC parameters are: Agilent DB-5MS column (30 m length, 0.25 mm diameter, 0.25 um film) or equivalent; The GC inlet temperature, 250° C.; Carry gas, helium in constant flow mode (1.2 mL/min); The GC oven temperature program, initial temperature at 70° C. for 1 min, ramping to 200° C. at 15° C./min, and then ramping to 250° C. at 30° C./min. MS data acquisition is done in SIM (selected ion monitoring) mode, monitoring the positive ion at M/Z 176 for the molecular ion of […]. The solvent delay for MS acquisition is set at 4 min. Another method for detection of 2,5-DCA is a head-space GC/MS method. Briefly, reaction mixtures in 500 ul reaction volume are prepared in 1.5 ml 12×32 mm glass vials (Microliter Analytical Supplies, Cat#11-1200) for head space analysis. Glass vials are sealed with magnetic cap from MicroLiter Analytical Supplies, Inc. (catalog number 11-0030AT) using a E-Z Crimper™ 11 mm from Wheaton Industries Inc. The reaction is carried out at room temperature for various amount of time and stopped by heating at 95° C. for 5 min. The reaction vial is transferred to a agitator for incubation at 80° C. for 5 min at 500 rpm. With a syringe preheated at 80° C., 1000 uL of head space is injected with sample fill speed at 100 uL/sec. GC/MS parameters for headspace analysis are the same as for liquid sample analysis.

[5] = LC-MS/MS detection of 4-chloro-3-methoxy phenol; type: biochemical; settings: purified protein, dicamba
Description: The decarboxylated and chloro hydrolyzed product, 4-chloro-3-methoxy phenol (FIG. 1D), is measured using a LC-MS/MS analytical procedure. […] 10 ul is removed from the reaction mixture and mixed with 90 ul pre-chilled methanol followed by centrifugation at 14,000 rpm for 15 min at 4° C. 10 ul of the supernatant is then transferred into 170 ul ddH2O to achieve 5% methanol solution for injection. 50 ul of the prepared sample is injected into a 4000 Q Trap LC-MS/MS system for sample analysis. LC-MS/MS parameters are: Mobile Phase A, 2 mM ammonium acetate in water; Mobile Phase B, 2 mM ammonium acetate in methanol; Column, Aquasil, 100×2.1 mm, 3 μm, C18 column; Flow Rate, 0.6 ml/min. The MS/MS fragment 157/142 which is common to 4-chloro-3-methoxy phenol, 2-chloro-5-methoxy phenol, and 3-chloro-5-methoxy phenol is monitored at a retention time of 2.88 min.

[6] = GC/MS detection of 2,5-dichloro phenol (2,5-DCP); kinetic determination; type: biochemical; settings: purified protein, dicamba
Description: The decarboxylated and demethylated product of dicamba, 2,5-dichloro phenol or 2,5-DCP (FIG. 1E) is measured using a GC/MS analytical procedure with either liquid injection after liquid/liquid extraction using toluene as the extraction solvent or gas injection using head space method. The head space sample analysis is carried out on an Agilent GC/MS system with a 6890A GC, a 5973N MSD and a CTC CombiPAL auto-sampler or with a 7890A GC, a 5975C MSD and an Agilent GC Sampler 80 auto-sampler with Phenomenex ZB-MultiResidue-1 column (30 m length, 0.25 mm diameter, 0.25 um film) or equivalent. GC/MS parameters are: GC inlet temperature, 200° C.; Carry gas, helium in constant flow mode (1.2 mL/min); Oven temperature program, 70° C. for 1 min and then ramp to 275° C. at 40° C./min. […] The reaction vial is transferred to a agitator for incubation at 90° C. for 4 min at 500 rpm. With a syringe preheated at 110° C., 1000 uL of head space is injected with sample fill speed at 100 uL/sec. A 2-mm diameter liner is used in sample inlet. The MS data acquisition is done in SIM (selected ion monitoring) mode. The positive ion at M/Z 162 for the molecular ion of 2,-5-DCP is monitored at retention time of 4.06 min. Solvent delay for MS acquisition is set at 3 min. GC/MS parameters for liquid sample analysis are the same as those for head space analysis, except that the volume of liquid injection is 1 uL.

Molecule	dicamba decarboxylase activity (statement in the description) [1]	CO2 product detected [2]	Enzymatic Detection level [3]	2,5-DCA product detected [4]	4-chloro-3-methoxy phenol product detected [5]	2,5-DCP product detected [6]	Percent Activity Improvement Over Parent (%) ([1]; parent (SEQ ID NO: 1 or SEQ ID NO: 41) = 100)	Dicamba Decarboxylase Activity ([3]; IPTG-induced recombinant E. coli cells, 14CO2 from [14C]-carboxyl-labeled dicamba)	decarboxylation activity of dicamba ([3]; among the 108 sequences tested, recombinant E. coli cell assay)
118 (protein, Dicamba decarboxylase variant clone DC.5.033) MAKKPRIDMHSHFFPRISEQEAAKFDANHAPWLQVSAKGDTGSIMMGKNNFQPVYQALWDPAFRIEEMDAQGVDVQVTCATPVMFGYTWEANKAAQWAERMNDFALEFAAHNPQRIKVLAQVPLQDLDLACKEASRAVAAGHLGIQIGNHLGDKDLDDATLEAFLTHCANEDIPILVHGTDMMGGQRMKKWGLPWLVALAAEVQLAILSLILSGAFERIPKSLKICFSHGGGSFAFLLGLVDEAWRHVDIVREDCPRPPSEYVDRFFVDSVGNPGALELLVSVMGEDRVMLGSDYPHTTGEQKIGGLVLSSNLGESAKDKIISGNASKFFNINV	have dicamba decarboxylase activity	not detected	High	detected	not detected	not detected			
119 (protein, Dicamba decarboxylase variant cloneDC.5.034) MAKKPRIDMHSHFFPRISEQEAAKFDANHAPWLQVSAKGDTGSIMMGKNNFQPVYQALWDPAFRIEEMDAQGVDVQVTCATPVMFGYTWEANKAAQWAERMNDFALEFAAHNPQRIKVLAQVPLQDLDLACKEASRAVAAGHLGIQIGNHLGDKDLDDATLEAFLTHCANEDIPILVHGWDMMGGQRMKKWGLYWLVAHHAEVQLAILSLILSGAFERIPKSLKICFSHGGGSFAFTLGWVDEAWRHVDIVREDCPRPPSEYVDRFFVDSVGNPGALELLVSVMGEDRVMLGSDYPLTTGEQKIGGLVLSSNLGESAKDKIISGNASKFFNINV	have dicamba decarboxylase activity	not detected	High	detected	not detected	not detected			
1 (protein, listed as Rhizobium sp.) MAQGKVALEEHFAIPETLQDSAGFVPGDYWKELQHRLLDIQDTRLKLMDAHGIETMILSLNAPAVQAIPDRRKAIEIARRANDVLAEECAKRPDRFLAFAALPLQDPDAATEELQRCVNDLGFVGALVNGFSQEGDGQTPLYYDLPQYRPFWGEVEKLDVPFYLHPRNPLPQDSRIYDGHPWLLGPTWAFAQETAVHALRLMASGLFDEHPRLNIILGHMGEGLPYMMWRIDHRNAWVKLPPRYPAKRRFMDYFNENFHITTSGNFRTQTLIDAILEIGADRILFSTDWPFENIDHASDWFNATSIAEADRVKIGRTNARRLFKLDGA	native dicamba decarboxylase activity	detected	High	detected	detected	detected	100	High	showed decarboxylation activity of dicamba
117 (protein, Dicamba decarboxylase variant clone DC.5.008) MAKKPRIDMHSHFFPRISEQEAAKFDANHAPWLQVSAKGDTGSIMMGKNNFRPVYQALWDPAFRIEEMDAQGVDVQVTCATPVMFGYTWEANKAAQWAERMNDFALEFAAHNPQRIKVLAQVPLQDLDLACKEASRAVAAGHLGIQIGNHLGDKDLDDATLEAFLTHCANEDIPILVHPWDMMGGQRMKKWMLPVLVAAPAEVQLAILSLILSGAFERIPKSLKICFAGGGGSFAFLLGIVDLAWRHRDIVREDCPRPPSEYVDRFFVDSLVFNPGALELLVSVMGEDRVMLGSDYPFPTGEQKIGGLVLSSNLGESAKDKIISGNASKFFNINV	have dicamba decarboxylase activity	not detected	High	detected	not detected	not detected			
120 (protein, Dicamba decarboxylase variant clone DC.12.002) MAIIDCHGHYTTTPKGVETYRNAQKAAVAKDPSFKYEKGQVVVSDDEIRESIENNQLKMQRERGTDLTIFSPRSTAGGHHIGNEYTSQFWTEHQNDLIRRVCDLFPKNFAPVAQLPQSPGVDPAKSVPEIVRTVEQMGFIGINLNPDPSGGYWKDTSLADRAFYPIYEKMVEYDIPAMIHPRNACNDCFHTTGSHALGADTTGFQQLIMSDVFKDFPSLKIIIPHGGGAVPYHWGRFRGLMQDQGYAPLEESALKNIYFDTCVYHQRGIDLLLDIVPTQNILFASEMIGAVRGIDAETGHNFDDTKRYIDNNTALNAEEKAMIFEGNARRVFSRLKTD	have dicamba decarboxylase activity	not detected	High	detected	not detected	not detected			

Reference: US20140289906A1, “Compositions Having Dicamba Decarboxylase Activity and Methods of Use” (priority 2013, published 2014)
